Each block holds one substance with its values, some of them ahead of it.
Key:
[1] = system: EmMBD2/3 MBD (Ephydatia muelleri); experiment: SPR; details: SPR: 10 mM HEPES pH 7.4, 50 mM NaCl, 3 mM MgCl2, 0.1 mM EDTA, 1 mM DTT, 0.05% polysorbate 20, temperature not stated, NMR conditions not in material
[2] = target: EmMBD2/3a coiled-coil domain (amino acids 324–354), thioredoxin fusion (E. muelleri); experiment: ITC; fusion peptides left uncleaved; 50 mM Hepes pH 7.4, 150 mM NaCl, 298 K; MicroCal Auto-iTC200, 20–24 injections; HsMBD2 (1.8 mM), EmGATAD2A/B (2.74 mM), DmGATAD2A/B (2.5 mM) injected into HsGATAD2A (100 μM), EmMBD2/3 (270 μM), DmMBD2/3 (250 μM); one-site binding model
[3] = system: EmMBD2/3a coiled-coil domain (amino acids 324–354), thioredoxin fusion; experiment: AUC; sedimentation velocity, 40,000 rpm, 293 K, 20 mM Tris pH 8.0, 150 mM NaCl; thioredoxin fusions left uncleaved; each peptide in isolation and a 100 μM mixture
[4] = target: EmGATAD2A/B coiled-coil domain (amino acids 58–100), thioredoxin fusion (E. muelleri); experiment: ITC; fusion peptides left uncleaved; 50 mM Hepes pH 7.4, 150 mM NaCl, 298 K; MicroCal Auto-iTC200, 20–24 injections; HsMBD2 (1.8 mM), EmGATAD2A/B (2.74 mM), DmGATAD2A/B (2.5 mM) injected into HsGATAD2A (100 μM), EmMBD2/3 (270 μM), DmMBD2/3 (250 μM); one-site binding model
[5] = target: DmMBD2/3 coiled-coil domain (amino acids 309–339), thioredoxin fusion (D. melanogaster); experiment: as above
Chain of DmMBD2/3 coiled-coil domain (amino acids 309–339), thioredoxin fusion (D. melanogaster) (main, as listed by the source): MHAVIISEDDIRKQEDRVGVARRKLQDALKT

[6] = target: HsGATAD2A coiled-coil domain, uncleaved fusion peptide (human) (UniProt Q86YP4); experiment: as above
Chain of HsGATAD2A coiled-coil domain, uncleaved fusion peptide (human) (Q86YP4 137-178): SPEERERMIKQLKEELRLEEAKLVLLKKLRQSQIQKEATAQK

Chain of HsMBD2 coiled-coil domain, uncleaved fusion peptide (Q9UBB5 360-393): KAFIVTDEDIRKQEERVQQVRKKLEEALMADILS

Substance: GAGGCGCTCGGCGGCAG (double strand) [mCpG 17 bp, 3'-biotin]
- Kd ([1]; 5-methyl-C at C9 of strand 1 and C8 of strand 2 (central CpG), two other CpGs unmethylated): 0.43 µM

- Kd [2]: 9.2 µM
- dH [2]: -9.8 kcal/mol
- stoichiometry N [2]: 0.8
Substance: EmGATAD2A/B coiled-coil domain (amino acids 58–100), thioredoxin fusion (domain or fragment)

Substance: EmGATAD2A/B coiled-coil domain (amino acids 58–100), thioredoxin fusion
- percent of heterodimeric species in a 100 μM mixture [3]: heterodimeric (45.1 kDa, 58.1%)

- Kd [4]: 1.3 µM
- dH [4]: -8.92 kcal/mol
- stoichiometry N [4]: 1.1
Substance: HsMBD2 coiled-coil domain, uncleaved fusion peptide (from UniProt Q9UBB5 360-393) (domain or fragment)

Substance: GAGGCGCTCGGCGGCAG (double strand) [CpG(x3) 17 bp, 3'-biotin]
- Kd [1]: 65 µM

- Kd [5]: 7.4 µM
- dH [5]: -27.6 kcal/mol
- stoichiometry N [5]: 1
Substance: DmGATAD2A/B coiled-coil domain (amino acids 183–223), thioredoxin fusion (domain or fragment)

- Kd [6]: 0.38 µM
- dH [6]: -8.99 kcal/mol
- stoichiometry N [6]: 1.3
Substance: EmMBD2/3a coiled-coil domain (amino acids 324–354), thioredoxin fusion (domain or fragment)
